From US20150050211A1 (UNIVERSITY OF SOUTHERN CALIFORNIA, published 2015)

How the values were obtained:
Assay in all cases: cell-based or functional assay
[1] = biological target: Her-2 (Human epithelial growth factor 2) on SKBR-3 cells (human) (UniProt P04626)
[2] = biological target: T1, Her-2 (Human epithelial growth factor 2) on SKBR-3 cells (human, UniProt P04626 23-1255)
[3] = biological target: T1, Her-2 (Human epithelial growth factor …); remark: listed apart in the source

Row | IC50, inhibition of proliferation of Her-2 positive cells (SKBR-3), BrdU incorporation [1] | fold enhancement of EC50 over ANHP, BrdU cell proliferation assay [2] | IC50, inhibition of proliferation of Her-2 positive cells (SKBR-3), BrdU incorporation [3] | fold improvement of EC50 over HRAP, BrdU cell proliferation assay [2] | Molecule
1 | 67000 nM | – | – | – | AHNP (peptide)
2 | – | ~110 fold | 640 nM | – | MVCVVLYDDK (not fully specified; N-methyl norvaline at positions 4 and 5 (position 2 is Val, per paragraph 127); cyclized from the lysine side chain to the N-terminus) [Peptide D]
3 | – | – | 520 nM | ~450 fold | MAVYVHYHK (not fully specified; V is N-methyl norvaline (positions 3 and 5); cyclized from the lysine side chain to the N-terminus) [Peptide 1]
